For orientation: stoichiometry N means the number of molecules, sites or subunits per partner or assembly.

These results are taken from PMC9510068.

The test has as its target Bac S-2P (S-2P from the baculovirus-insect cell expression system, TN-5B1-4 cells) (SARS-CoV-2). The test can be described thus: negative-stain EM.

The substance “Bac S-2P (S-2P from the baculovirus-insect cell expression system, TN-5B1-4 cells) (domain or fragment)” returned a stoichiometry N of 3.
